Experiments:
[1] = target: tissue factor (TF) antigen (UniProt P13726); test: SPR (ProteOn), Fab captured on anti-penta-His surface, TF injected; reference wild-type D3H44 Fab
[2] = target: tissue factor (TF) antigen (UniProt P13726); test: SPR (ProteOn), Fab captured on anti-penta-His surface, TF injected, 1:1 fit
[3] = target: tissue factor (TF) antigen (UniProt P13726); test: SPR, Fab captured on anti-penta His, TF injected, 1:1 fit
[4] = target: tissue factor (TF) antigen (UniProt P13726); test: SPR; reference wild-type D3H44 Fab
[5] = target: tissue factor (TF) antigen (UniProt P13726); test: SPR, Fab captured on anti-penta-His, TF as analyte, 1:1 fit
[6] = target: tissue factor (TF) antigen (UniProt P13726); test: SPR, same assay; reference wild-type D3H44 Fab
[7] = target: tissue factor (TF) antigen (UniProt P13726); test: SPR (ProteOn XPR36), Fab captured on anti-penta His surface, TF injected as analyte, 1:1 model
[8] = target: tissue factor (TF) antigen (UniProt P13726); test: SPR (ProteOn XPR36): His-tagged Fab captured on anti-penta-His surface, TF as analyte, 1:1 fit
[9] = target: tissue factor (TF) antigen (UniProt P13726); test: SPR, against wild-type D3H44 Fab; batch C (+)
[10] = target: tissue factor (TF) antigen (UniProt P13726); test: SPR (ProteOn XPR36), Fab captured on anti-penta-His, TF injected, 1:1 fit; batch C (+)
[11] = target: tissue factor (TF) antigen (UniProt P13726); test: SPR (ProteOn XPR36), His-tagged Fab captured on anti-penta His, TF as analyte, 1:1 fit

Chain of tissue factor (TF) antigen (P13726 33-251 limits assumed): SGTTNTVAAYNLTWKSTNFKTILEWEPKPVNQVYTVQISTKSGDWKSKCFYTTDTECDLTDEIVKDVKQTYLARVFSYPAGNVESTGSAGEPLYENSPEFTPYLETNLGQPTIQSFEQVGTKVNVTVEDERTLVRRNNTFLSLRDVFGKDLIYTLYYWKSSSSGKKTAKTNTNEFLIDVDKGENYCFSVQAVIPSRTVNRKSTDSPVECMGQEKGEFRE

“D3H44 H1L1 Fab heterodimer of LCCA Set # 9538 (H1 L124R_S186R; L1 V133G_S176D_T178D_T180E)” gave a Change in median values of KD of h1l1 Fab heterodimer compared to wild type (-(log(KD design)-log(KD wt))) [1] of -0.04 and a Kd [2] of 170 pM.

“D3H44 Fab heterodimer, H L124R_Q179K / L V133G_Q160E_S176D_T180E” was tested, and the Kd [3] was 190 pM and the Change in KD with respect to wild type (-(log(KD design) - log(KD wt))) [4] was -0.08.

In the case of “D3H44 Fab heterodimer, H L124R_Q179K / L V133G_S176D_T178E_T180E”, the Kd [3] is reported as 230 pM and the Change in KD with respect to wild type (-(log(KD design) - log(KD wt))) [4] is reported as -0.16.

In the case of “D3H44 Fab heterodimer, H L124R_D146N_Q179K / L Q124E_V133G_S176D_T178E_T180E”, the Kd [3] is reported as 200 pM, the Change in KD with respect to wild type (-(log(KD design) - log(KD wt))) [4] is reported as -0.1 and the Change in KD with respect to wild type (-(log(KD design) - log(KD wt))) [5] is reported as -0.1. It also gave a Kd [5] of 200 pM.

“D3H44 H1L1 Fab heterodimer of LCCA Sets # 9349 and 9348 (H1 L124R_A139G_V190A; L1 V133G_L135W_S176D)” showed a Change in median values of KD of h1l1 Fab heterodimer compared to wild type (-(log(KD design)-log(KD wt))) [1] of 0.03 and a Kd [2] of 150 pM.

For “D3H44 H1L1 Fab heterodimer of LCCA Sets # 9505 and 9503 (H1 L124R_S186R; L1 Q124E_V133G_S176D_T178D_T180E)”, the Change in median values of KD of h1l1 Fab heterodimer compared to wild type (-(log(KD design)-log(KD wt))) [1] was -0.21 and the Kd [2] was 260 pM.

In the case of “H1L1 Fab heterodimer of LCCA set 9354 (D3H44 Fab, H1 L124R_D146N_Q179K, L1 V133G_Q160E_S176D_T180E)”, the change in median KD of H1L1 Fab heterodimer compared to wild type (-(log(KD design)-log(KD wt))) [6] is reported as -0.04 and the Kd [7] is reported as 170 pM.

“D3H44 H1L1 Fab heterodimer of LCCA set 9082 (H1 K145T_Q179E; L1 S131K)” was tested, and the Change in median values of KD of h1|1 Fab heterodimer compared to wild type (-(log(KD design)-log(KD wt))) [8] was -0.01 log units and the Kd [8] was 160 pM.

With “H1L1 Fab heterodimer of LCCA Set # 9781 and 9782 (D3H44 Fab; H1 Q179K, L1 Q124E_S176L_T180E)” the Change in median values of KD of h1l1 Fab heterodimer compared to wild type (-(log(KD design)-log(KD wt))) [9] was 0.28 and the Kd [10] was 80 pM.

Substance “H1L1 Fab heterodimer of LCCA Set # 9843 and 9844 (D3H44 Fab; H1 S186K, L1 Q124E_S131T_T178F_T180E)” has a Change in median values of KD of h1l1 Fab heterodimer compared to wild type (-(log(KD design)-log(KD wt))) [9] of -0.03 and a Kd [10] of 170 pM.

In the case of “D3H44 Fab heterodimer, H1 A139C_C233S / L1 F116C_C214S (H1L1 Fab of LCCA Set # 9041)”, the Kd [11] is reported as 140 pM.

In the case of “H1L1 Fab heterodimer of LCCA set 9225 (D3H44 Fab, H1 L124E_L143D_K145T, L1 Q124K_V133G_S176R_T178R)”, the change in median KD of H1L1 Fab heterodimer compared to wild type (-(log(KD design)-log(KD wt))) [6] is reported as -0.02 and the Kd [7] is reported as 160 pM.

Work on “D3H44 H1L1 Fab heterodimer of LCCA Set # 9270 (H1 L124E_L143E_K145M; L1 Q124K_V133G_S176R_T178R)” yielded a Change in median values of KD of h1l1 Fab heterodimer compared to wild type (-(log(KD design)-log(KD wt))) [1] of -0.29 and a Kd [2] of 310 pM.

In the case of “D3H44 Fab heterodimer, H L124R_D146N_Q179K / L V133G_Q160E_S176D_T180E”, the Kd [3] is reported as 170 pM and the Change in KD with respect to wild type (-(log(KD design) - log(KD wt))) [4] is reported as -0.04.

With “D3H44 H1L1 Fab heterodimer of LCCA Set # 9362 (H1 L124R_D146N_Q179K; L1 V133G_S176D_T178E_T180E)” the Change in median values of KD of h1l1 Fab heterodimer compared to wild type (-(log(KD design)-log(KD wt))) [1] was -0.01 and the Kd [2] was 160 pM.

“D3H44 H1L1 Fab heterodimer of LCCA Sets # 9521 and 9520 (H1 L124R_S186R; L1 V133G_S176D_T178D)” gave a Change in median values of KD of h1l1 Fab heterodimer compared to wild type (-(log(KD design)-log(KD wt))) [1] of -0.1 and a Kd [2] of 200 pM.

Work on “D3H44 Fab heterodimer, H1 F122C_C233S / L1 S121C_C214S (H1L1 Fab of LCCA Set # 9043)” yielded a Kd [11] of 160 pM.

For “D3H44 Fab heterodimer, H L124R_S186K / L Q124E_V133G_S176D_T178D_T180E”, the Kd [3] was 260 pM, the Change in KD with respect to wild type (-(log(KD design) - log(KD wt))) [4] was -0.23 and the Change in KD with respect to wild type (-(log(KD design) - log(KD wt))) [5] was -0.23. For the same substance, the Kd [5] was 260 pM.

In the case of “H1L1 Fab heterodimer of LCCA set 9214 (D3H44 Fab, H1 L124E_L143D_K145T, L1 Q124K_V133G_S176R_T178K)”, the change in median KD of H1L1 Fab heterodimer compared to wild type (-(log(KD design)-log(KD wt))) [6] is reported as -0.08 and the Kd [7] is reported as 190 pM.

Work on “H1L1 Fab heterodimer of LCCA set 9269 (D3H44 Fab, H1 L124E_L143E_K145M, L1 Q124K_V133G_S176R_T178R)” yielded a change in median KD of H1L1 Fab heterodimer compared to wild type (-(log(KD design)-log(KD wt))) [6] of -0.29 and a Kd [7] of 310 pM.

From US11306156
